Values of other authors in article PMC3623542.
Like-named read-outs stand apart in the source and are kept apart here.

Key:
DnaK (Escherichia coli) [1] = target: DnaK (Escherichia coli) (UniProt P0A6Y8); assay: NMR
DnaK (Escherichia coli) [2] = target: DnaK (Escherichia coli) (UniProt P0A6Y8)
DnaK (Escherichia coli) [3] = target: DnaK (Escherichia coli) (UniProt P0A6Y8); assay: SPR
DnaK (Escherichia coli) [4] = target: DnaK (Escherichia coli) (UniProt P0A6Y8); assay: SPR; remark: listed apart in the source
DnaK (Escherichia coli) [5] = target: DnaK (Escherichia coli) (UniProt P0A6Y8); assay: SPR; remark: listed apart in the source
DnaK (Escherichia coli) [6] = target: DnaK (Escherichia coli) (UniProt P0A6Y8); remark: listed apart in the source

Chain of DnaJ (P08622 2-376): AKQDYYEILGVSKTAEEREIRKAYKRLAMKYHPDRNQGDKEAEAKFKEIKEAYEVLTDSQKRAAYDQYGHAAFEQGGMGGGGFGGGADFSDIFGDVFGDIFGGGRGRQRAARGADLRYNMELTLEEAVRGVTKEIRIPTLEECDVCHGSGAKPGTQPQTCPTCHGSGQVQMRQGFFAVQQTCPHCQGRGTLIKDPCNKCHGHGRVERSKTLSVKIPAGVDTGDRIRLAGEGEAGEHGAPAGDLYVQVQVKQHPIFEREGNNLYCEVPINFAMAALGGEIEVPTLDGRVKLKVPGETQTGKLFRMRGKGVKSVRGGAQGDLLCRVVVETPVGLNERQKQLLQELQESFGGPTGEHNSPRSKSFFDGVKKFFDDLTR
Chain of DnaK (Escherichia coli) (P0A6Y8 2-638): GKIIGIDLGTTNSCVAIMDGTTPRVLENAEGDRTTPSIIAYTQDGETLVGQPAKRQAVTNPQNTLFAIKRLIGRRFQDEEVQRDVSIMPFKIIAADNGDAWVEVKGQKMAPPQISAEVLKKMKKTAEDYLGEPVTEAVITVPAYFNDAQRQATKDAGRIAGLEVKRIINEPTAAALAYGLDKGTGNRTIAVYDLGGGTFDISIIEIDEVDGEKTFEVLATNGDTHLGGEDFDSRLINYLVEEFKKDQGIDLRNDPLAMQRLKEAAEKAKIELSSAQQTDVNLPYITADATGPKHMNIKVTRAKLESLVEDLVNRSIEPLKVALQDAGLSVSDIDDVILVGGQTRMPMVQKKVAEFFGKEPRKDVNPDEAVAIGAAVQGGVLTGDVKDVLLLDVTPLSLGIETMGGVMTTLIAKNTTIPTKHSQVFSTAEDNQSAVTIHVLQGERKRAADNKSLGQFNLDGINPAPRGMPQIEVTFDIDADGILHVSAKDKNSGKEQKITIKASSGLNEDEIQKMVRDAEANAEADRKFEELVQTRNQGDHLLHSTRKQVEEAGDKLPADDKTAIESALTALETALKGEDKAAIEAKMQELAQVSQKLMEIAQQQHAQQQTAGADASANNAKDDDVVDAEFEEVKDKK
Chain of DnaJ 1-75 (P08622 1-75): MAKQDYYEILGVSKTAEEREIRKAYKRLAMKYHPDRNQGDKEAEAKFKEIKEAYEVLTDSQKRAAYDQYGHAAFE

Kd (DnaK (Escherichia coli) [1]) [nM] | Kd (DnaK (Escherichia coli) [2]) [nM] | Kd (DnaK (Escherichia coli) [3]) [nM] | Kd (DnaK (Escherichia coli) [4]) [nM] | Kd (DnaK (Escherichia coli) [5]) [nM] | Kd (DnaK (Escherichia coli) [6]) [nM] | Substance
10000 |  |  |  |  |  | DnaJ 1-75 (from UniProt P08622)
 | 140 | 70 | 300 | > 1000 | > 2000 | DnaJ (from UniProt P08622)
